The results in this text go back to paper doi:10.1101/2022.05.27.493400.

Where “and” joins values, the source holds several entries; their conditions need not be identical. Equal values may be shown once.

One may read the stoichiometry N as the number of molecules, sites or subunits per partner or assembly. By Kd is commonly meant the equilibrium constant for the complex coming apart. What is called kon is the second-order rate constant of association.

Test [1] concerns the target pineapple-derived jacalin-related lectin AcmJRL (pineapple (Ananas comosus)). The experiment in a line: dynamic light scattering.
For test [2], the target named is SARS-CoV-2 spike receptor-binding domain (RBD) (SARS-CoV-2) (UniProt P0DTC2). Nature of the test: SPR. For orientation: SPR reads the build-up and loss of mass on a sensor chip optically.
Test [3] deals with human angiotensin-converting-enzyme-2 (ACE2) receptor, recombinant (human) (UniProt Q9BYF1). The experiment in a line: SPR.

“pineapple-derived jacalin-related lectin AcmJRL (natural protein)”: the stoichiometry N in test [1] was 2. Also, the Kd in test [2] was 12.9 µM and 35 µM; in test [3], 22.1 µM. The results for the kon in test [2] and in test [3] were 1490 M⁻¹ s⁻¹ and 590 M⁻¹ s⁻¹, respectively.
